Measured values taken from the Human Domainome abundance scans (Beltran et al. 2025).
± gives the uncertainty stated by the source.

B1: PDZ and LIM domain protein 2, residues 284 to 339; numbered along this chain, Q96JY6 (parent)
chain: HTCEKCSTSIANQAVRIQEGRYRHPGCYTCADCGLNLKMRGHFWVGDELYCEKHAR
B2: Chromodomain-helicase-DNA-binding protein 4, residues 623 to 675; numbered along this chain, Q14839 (parent)
chain: MIHRILNHSVDKKGHVHYLIKWRDLPYDQASWESEDVEIQDYDLFKQSYWNHR

Variants of: B1
Test: abundance fitness (aPCA) (normalised: wild type 0, dead -1); higher = more abundant; growth selection in yeast, the domain comes from the species named
Conditions: Homo sapiens

In order of falling abundance fitness:
1. HTCEKCSTSIAEQAVRIQEGRYRHPGCYTCADCGLNLKMRGHFWVGDELYCEKHAR [N12E]  0.498 ± 0.091
2. HTCEKCSTSIANDAVRIQEGRYRHPGCYTCADCGLNLKMRGHFWVGDELYCEKHAR [Q13D]  0.448 ± 0.14
3. HTCEKCSTSIANQAVRIQEGRYRHPGCYTCADCGLNLKERGHFWVGDELYCEKHAR [M39E]  0.286 ± 0.063
4. HTCEKCSTSIANQAVRIQEGRYRHPGCYTCADCGLNLKMRGHFWVGDELYCEKHAE [R56E]  0.263 ± 0.16
5. HTCEKCSTSIANQAVNIQEGRYRHPGCYTCADCGLNLKMRGHFWVGDELYCEKHAR [R16N]  0.191 ± 0.14
6. HTCEKCSTSIANQAVRIQEGRYRHPGCYTCADCGLNLKMRGHFWVGDELYCPKHAR [E52P]  0.183 ± 0.12
7. HTCEKCSTSIANQAVIIQEGRYRHPGCYTCADCGLNLKMRGHFWVGDELYCEKHAR [R16I]  0.172 ± 0.13
8. HTCEKCSTSIANQAVSIQEGRYRHPGCYTCADCGLNLKMRGHFWVGDELYCEKHAR [R16S]  0.112 ± 0.098
9. HTCEKCSTSIANQAVRIQEGRYRHLGCYTCADCGLNLKMRGHFWVGDELYCEKHAR [P25L]  0.099 ± 0.054
10. HTCEKCSTSIANGAVRIQEGRYRHPGCYTCADCGLNLKMRGHFWVGDELYCEKHAR [Q13G]  0.098 ± 0.071
11. HTCEKCSTSIANQAVRIQEGRYRHMGCYTCADCGLNLKMRGHFWVGDELYCEKHAR [P25M]  0.075 ± 0.085
12. HTCEKCSTSIANQAVRIQEGRYRHPWCYTCADCGLNLKMRGHFWVGDELYCEKHAR [G26W]  0.072 ± 0.1
13. HTCEKCSTSIANQAVRIQEGRYRHPGCYTCADCGLNLKMRGHFWVGDELYCEKHAV [R56V]  0.049 ± 0.14
14. HTCEKCSTSIANQAVRIQEGRYRHPGCYTCADCGLNLKMDGHFWVGDELYCEKHAR [R40D]  0.027 ± 0.16
15. HTCEKCSTSIANQAVRIQEGRYRHPGCYTCADCSLNLKMRGHFWVGDELYCEKHAR [G34S]  0.024 ± 0.076
16. HTCEKCSTSIANQAVRIQEGRYRHPGCYTCGDCGLNLKMRGHFWVGDELYCEKHAR [A31G]  0.019 ± 0.08
17. HTCEKCSTSIANQAVRIQEGRYRHPCCYTCADCGLNLKMRGHFWVGDELYCEKHAR [G26C]  0.006 ± 0.11
18. HTCEKCSTSIANQAVRIQEGRYRHPGCYICADCGLNLKMRGHFWVGDELYCEKHAR [T29I]  -0.004 ± 0.1
19. HTCDKCSTSIANQAVRIQEGRYRHPGCYTCADCGLNLKMRGHFWVGDELYCEKHAR [E4D]  -0.063 ± 0.17
20. HTCEKCSTSIANQAVRIQEGRYRHPNCYTCADCGLNLKMRGHFWVGDELYCEKHAR [G26N]  -0.083 ± 0.12
21. HTCEKCSTSIANQAVRIQEGRYRHPGCYTCADCGLNLKMRGHFWVGMELYCEKHAR [D47M]  -0.086 ± 0.11
22. HTCEKCSTSIAAQAVRIQEGRYRHPGCYTCADCGLNLKMRGHFWVGDELYCEKHAR [N12A]  -0.096 ± 0.097
23. HTCEKCSMSIANQAVRIQEGRYRHPGCYTCADCGLNLKMRGHFWVGDELYCEKHAR [T8M]  -0.099 ± 0.085
24. HTCEKCSTSIANQAVRIQEGRYRHPGCYTCADCGLNLKMRGHFWVGNELYCEKHAR [D47N]  -0.11 ± 0.14
25. HTCEKCSTSIANQAVRIQEGRYRHPGCYTCADCGLVLKMRGHFWVGDELYCEKHAR [N36V]  -0.113 ± 0.059
26. HTCEKCSTSIANQAVRIKEGRYRHPGCYTCADCGLNLKMRGHFWVGDELYCEKHAR [Q18K]  -0.141 ± 0.11
27. HTCEKCSTSIANQAVRIQEGRYRHPGCYTCCDCGLNLKMRGHFWVGDELYCEKHAR [A31C]  -0.146 ± 0.12
28. HTCEKCSTSIANQAVRIQEGRYRHPGCYTCADCGLNLKMRGHFWVGDEAYCEKHAR [L49A]  -0.159 ± 0.068
29. HTCEKCSTSIANQAVRIQEGRYRHPGCSTCADCGLNLKMRGHFWVGDELYCEKHAR [Y28S]  -0.179 ± 0.068
30. HTCEKCSTSIANQAVRIQEGRYRHPGCYTCADCGLNLKMRGHFWVGDELACEKHAR [Y50A]  -0.188 ± 0.086
31. HTCEKCSTSIANQAVRIQEGRYRHPGCYFCADCGLNLKMRGHFWVGDELYCEKHAR [T29F]  -0.194 ± 0.18
32. HTCEKCHTSIANQAVRIQEGRYRHPGCYTCADCGLNLKMRGHFWVGDELYCEKHAR [S7H]  -0.212 ± 0.11
33. HTCEKCSTSIANQAVRIQEGRYSHPGCYTCADCGLNLKMRGHFWVGDELYCEKHAR [R23S]  -0.278 ± 0.072
34. HTCEKCSTSIANQAVRIQEGRYRHPGCYTCADCGLNLKMRGHFWVGFELYCEKHAR [D47F]  -0.339 ± 0.21
35. HTCKKCSTSIANQAVRIQEGRYRHPGCYTCADCGLNLKMRGHFWVGDELYCEKHAR [E4K]  -0.362 ± 0.12
36. HTCEKCSTSIANQAVRIQEGRYRHPGCYTCADCGLNLKMRGHFWVGDEEYCEKHAR [L49E]  -0.377 ± 0.081
37. HTCEKCSTSIANQAVRIQEGRYRHPGCITCADCGLNLKMRGHFWVGDELYCEKHAR [Y28I]  -0.452 ± 0.2
38. HTCEKCSTSIANQAVRIQEGRYRHPGCYECADCGLNLKMRGHFWVGDELYCEKHAR [T29E]  -0.455 ± 0.15
39. HTFEKCSTSIANQAVRIQEGRYRHPGCYTCADCGLNLKMRGHFWVGDELYCEKHAR [C3F]  -0.483 ± 0.11
40. HTCEKCSTSIANQAVRQQEGRYRHPGCYTCADCGLNLKMRGHFWVGDELYCEKHAR [I17Q]  -0.535 ± 0.14
41. HTCEKCSTSIANQAARIQEGRYRHPGCYTCADCGLNLKMRGHFWVGDELYCEKHAR [V15A]  -0.625 ± 0.16
42. HTCEKCSTSIANQAVRIQEGRYRHPGCYTTADCGLNLKMRGHFWVGDELYCEKHAR [C30T]  -0.642 ± 0.07
43. HTCEKCSTSIANQAVRIQEGRYRHPGCYTCADCGLNLLMRGHFWVGDELYCEKHAR [K38L]  -0.702 ± 0.1
44. HTCEKCSTSIANQAVRIQEGRYRHPGCYTNADCGLNLKMRGHFWVGDELYCEKHAR [C30N]  -0.788 ± 0.35
45. HTCEKCSTSIANQAVRIQEGRYRHPGCYTCADCGLNLKMRWHFWVGDELYCEKHAR [G41W]  -0.797 ± 0.072
46. HTCEKCSTSIANQAVRIQEGRYRHPGCYTWADCGLNLKMRGHFWVGDELYCEKHAR [C30W]  -1.05 ± 0.23

Variants of: B2
Test: as above
Conditions: Homo sapiens

In order of rising abundance fitness:
1. L44C  -0.293 ± 0.13
2. L44E  -0.211 ± 0.15
3. L44F  -0.201 ± 0.11
4. L44D  -0.16 ± 0.087
5. L44Y  -0.089 ± 0.084
6. L44H  -0.034 ± 0.077
7. L44V  0.074 ± 0.074
8. L44M  0.085 ± 0.13
